B1: Azoarcus group I ribozyme (parent)
chain: GUGCCUUGCGCCGGGAAACCACGCAAGGGAUGGUGUCAAAUUCGGCGAAACCUAAGCGCCCGCCCGGGCGUAUGGCAACGCCGAGCCAAGCUUCGGCGCCUGCGCCGAUGAAGGUGUAGAGACUAGACGGCACCCACCUAAGGCAAACGCUAUGGUGAAGGCAUAGUCCAGGGAGUGGCGAAAGUCACACAAACCGG

Variants of: B1
Assay: reverse-splicing fitness (ratio to wild type); higher = more active; in vitro selection; Mg2+ level not given
In short: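 An in vitro group I ribozyme library with randomized positions was T7-transcribed and gel-purified. In triplicate, 10 pmol RNA in EPPS pH 7.5 was reacted with 50 pmoles of a 30-nt RNA substrate for 1 h at 37 °C across several added MgCl2 levels (1–48 mM), then stopped with EDTA. Products were reverse transcribed from a substrate-complementary primer, PCR-amplified and sequenced (HiSeq 4000). Fitness is a variant's read proportion after selection over that before, normalised to wild type.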

| Variant | reverse-splicing fitness |
| --- | --- |
| C82G A111C A120U A145U C169U | 0.00412 |
| C82G A111C A120U A145U C169U U176A | 0.00319 |
| C82G A111C A120U A145U C169U U176C | 0.00318 |
| C82G A111C A120U A145U C169U U176G | 0.00187 |
| C82G A111C A120U A145U U176A | 0.0115 |
| C82G A111C A120U A145U U176C | 0.0197 |
| C82G A111C A120U A145U U176G | 0.00533 |
| C82G A111C A120U C150A | 0.00807 |
| C82G A111C A120U C150A C169A | 0.00547 |
| C82G A111C A120U C150A C169A U176A | 0.00668 |
| C82G A111C A120U C150A C169A U176C | 0.00453 |
| C82G A111C A120U C150A C169A U176G | 0.00289 |
| C82G A111C A120U C150A C169G | 0.0046 |
| C82G A111C A120U C150A C169G U176A | 0.00466 |
| C82G A111C A120U C150A C169G U176C | 0.00487 |
| C82G A111C A120U C150A C169G U176G | 0.0024 |
| C82G A111C A120U C150A C169U | 0.00505 |
| C82G A111C A120U C150A C169U U176A | 0.00691 |
| C82G A111C A120U C150A C169U U176C | 0.00469 |
| C82G A111C A120U C150A C169U U176G | 0.00298 |
| C82G A111C A120U C150A U176A | 0.00581 |

| Variant | reverse-splicing fitness |
| --- | --- |
| C82G A111C A120U C150A U176C | 0.00693 |
| C82G A111C A120U C150A U176G | 0.00333 |
| C82G A111C A120U C150G | 0.00766 |
| C82G A111C A120U C150G C169A | 0.00763 |
| C82G A111C A120U C150G C169A U176A | 0.00878 |
| C82G A111C A120U C150G C169A U176C | 0.0071 |
| C82G A111C A120U C150G C169A U176G | 0.00331 |
| C82G A111C A120U C150G C169G | 0.00669 |
| C82G A111C A120U C150G C169G U176A | 0.0049 |
| C82G A111C A120U C150G C169G U176C | 0.00379 |
| C82G A111C A120U C150G C169G U176G | 0.00302 |
| C82G A111C A120U C150G C169U | 0.00609 |
| C82G A111C A120U C150G C169U U176A | 0.00494 |
| C82G A111C A120U C150G C169U U176C | 0.00676 |
| C82G A111C A120U C150G C169U U176G | 0.00294 |
| C82G A111C A120U C150G U176A | 0.00422 |
| C82G A111C A120U C150G U176C | 0.00675 |
| C82G A111C A120U C150G U176G | 0.00279 |
| C82G A111C A120U C150U | 0.0243 |
| C82G A111C A120U C150U C169A | 0.00635 |
| C82G A111C A120U C150U C169A U176A | 0.00515 |

| Variant | reverse-splicing fitness |
| --- | --- |
| C82G A111C A120U C150U C169A U176C | 0.00319 |
| C82G A111C A120U C150U C169A U176G | 0.00243 |
| C82G A111C A120U C150U C169G | 0.00542 |
| C82G A111C A120U C150U C169G U176A | 0.00503 |
| C82G A111C A120U C150U C169G U176C | 0.00301 |
| C82G A111C A120U C150U C169G U176G | 0.00259 |
| C82G A111C A120U C150U C169U | 0.00568 |
| C82G A111C A120U C150U C169U U176A | 0.00688 |
| C82G A111C A120U C150U C169U U176C | 0.00485 |
| C82G A111C A120U C150U C169U U176G | 0.0024 |
| C82G A111C A120U C150U U176A | 0.00878 |
| C82G A111C A120U C150U U176C | 0.0132 |
| C82G A111C A120U C150U U176G | 0.00397 |
| C82G A111C A120U C169A | 0.00474 |
| C82G A111C A120U C169A U176A | 0.00425 |
| C82G A111C A120U C169A U176C | 0.00457 |
| C82G A111C A120U C169A U176G | 0.00246 |
| C82G A111C A120U C169G | 0.00478 |
| C82G A111C A120U C169G U176A | 0.00344 |
| C82G A111C A120U C169G U176C | 0.00367 |
| C82G A111C A120U C169G U176G | 0.00213 |

| Variant | reverse-splicing fitness |
| --- | --- |
| C82G A111C A120U C169U | 0.00571 |
| C82G A111C A120U C169U U176A | 0.00632 |
| C82G A111C A120U C169U U176C | 0.00475 |
| C82G A111C A120U C169U U176G | 0.00247 |
| C82G A111C A120U U176A | 0.0113 |
| C82G A111C A120U U176C | 0.0175 |
| C82G A111C A120U U176G | 0.00466 |
| C82G A111C A145C | 0.29 |
| C82G A111C A145C C150A | 0.016 |
| C82G A111C A145C C150A C169A | 0.00842 |
| C82G A111C A145C C150A C169A U176A | 0.0136 |
| C82G A111C A145C C150A C169A U176C | 0.00947 |
| C82G A111C A145C C150A C169A U176G | 0.00782 |
| C82G A111C A145C C150A C169G | 0.00856 |
| C82G A111C A145C C150A C169G U176A | 0.0237 |
| C82G A111C A145C C150A C169G U176C | 0.0224 |
| C82G A111C A145C C150A C169G U176G | 0.00878 |
| C82G A111C A145C C150A C169U | 0.00955 |
| C82G A111C A145C C150A C169U U176A | 0.0135 |
| C82G A111C A145C C150A C169U U176C | 0.0122 |

Reference: the RNAGym collection of RNA variant scans (doi:10.1093/molbev/msab373)
